# Experimental data as given in PMC6720803, “Stability Evaluation and Stabilization of a Gastrin-Releasing Peptide Receptor (GRPR) Targeting Imaging Pharmaceutical” (Molecules, 2019).
# What was measured:
# [1] = format: physicochemical; conditions: pH 7.2
# Method: A dose calibrator (Capintec, Florham Park, NJ, USA) and a Wizard 2480 gamma counter (Perkin Elmer, Waltham, MA, USA) were used for radioactivity measurements in the samples. A model 1100 Agilent HPLC system (Agilent, Wilmington, DE, USA) was used for the analysis of ^177Lu-labeled RM1 and AMBA and stability samples. The system consisted of a quaternary pump, degasser, column compartment capable of controlling the temperature at ambient or at 37 °C, auto-injector, a multiwavelength detector, and a Flow Ram radioisotope detector (Lab Logic, Sheffield, UK). The system was controlled by Laura software from Lab Logic. […] Zorbax Bonus RP C18 column (4.6 × 250 mm, 5 µm) was used for the analysis of ^177Lu-labeled AMBA and RM1 samples and for the separation of the ^177Lu-labeled AMBA and RM1 from their in vitro metabolic degradants in mouse, human, and canine sera stability samples.
# (§1) All mass spectral analyses were performed at the Campus Chemical Instrument Center of the Ohio State University (Columbus, OH, USA) using a Bruker UltrafleXtreme MALDI-TOF MS system. […]
# [2] = log D by shake-flask method; format: physicochemical
# Method: The log D values were determined by a traditional shake-flask method. In a typical experiment, 10 μL sample of ^177Lu-labeled AMBA or RM1 with 0.037–0.052 GBq/mL radioconcentration and 814 GBq/mmol molar activity were added to a 4 mL mixture of 50:50 octanol:water. The mixture was shaken for one minute and mixed well. The sample was stored at room temperature for 5 min for separation of the two layers. Sample from each layer (25 μL) was added to a counting tube containing 250 μL water. The samples were mixed and counted. Triplicate measurements were made. The log D values were calculated using Equation (1): D = Counts in organic phase/Counts in the aqueous phase.(1)
# [3] = Stability of low-radioconcentration samples in acetate buffer; format: physicochemical; conditions: pH 5
# Method: The final pH of the ^177Lu-labeled RM1 and AMBA, post radiolabeling, was usually ~5 to 5.5, and the acetate buffer concentration was 0.1 M. Consequently, the degradation kinetics of ^177Lu-labeled RM1 and AMBA were evaluated in this environment after storage at room temperature (25 °C) and 2–8 °C for 5 d. Both samples were analyzed using an RP-HPLC method at various time points.
# as §1
# All samples of ^177Lu-labeled RM1 were prepared in 0.1 M acetate buffer, pH 5–5.5. […] The stability or degradation of the samples was monitored by a reduction in the percent HPLC peak area of ^177Lu-labeled RM1 with time.
# Degradation of ^177Lu-labeled RM1 or AMBA was monitored by a reduction in percent HPLC peak area with time. Half-lives of in vitro acetate buffer and serum degradation for each imaging pharmaceutical were calculated by fitting the percent peak remaining versus time to a first-order kinetics model (Equations (2) and (3)) using Excel or Graph Pad Prism version 5.03 software (Graph Pad Software, Inc., La Jolla, CA, USA). […]
# [4] = format: in vitro ADME, mouse
# Method: (§2) For mouse, canine, and human sera stability studies, 50 µL of ^177Lu-labeled RM1 or AMBA was mixed with 450 µL of mouse or canine or human serum. The mixtures were incubated at 37 °C for 24 h, samples were processed at each time point, and analyzed by an RP-HPLC method.
# as §1
# (§3) A literature procedure was followed for the serum stability studies of ^177Lu-labeled RM1 and AMBA [37, 43]. […] Several mixtures, containing 50 µL of ^177Lu-labeled RM1 or AMBA (usually 1.48 to 2.22 MBq radioactivity) and 450 µL of the mouse or human or canine serum, were prepared in HPLC vials and incubated at 37 °C in the block heater. […] The sample was then centrifuged at 6000 rpm for 15 min, and 200 µL of the supernatant solution was isolated and analyzed by an RP- HPLC method given above. A control experiment was conducted where samples of ^177Lu-labeled AMBA and RM1 were incubated in the water at 37 °C and analyzed by the RP-HPLC method.
# (§4) Degradation of ^177Lu-labeled RM1 or AMBA was monitored by a reduction in percent HPLC peak area with time. […]
# [5] = In vitro human serum stability; format: in vitro ADME; conditions: 50 µL labeled peptide + 450 µL human serum, 37 °C, RP-HPLC, read-out: degradation in human serum
# Method: as §2, §1, §3, §4
# [6] = Stability of high-radioconcentration samples in acetate buffer without and with stabilizers; format: physicochemical; conditions: 2–8 °C; for half-life of degradation (t1/2): 0.1 M acetate buffer pH 5, high radioconcentration (0.74 GBq/mL), RP-HPLC, first-order fit, average (SD) n = 3
# Method: The ^177Lu-labeled RM1 samples in acetate buffer, with 0.74 GBq/mL radio concentration, 10,175–12,765 GBq/mmol molar activity, and >99% RCP, were prepared for high-radioconcentration sample stability studies. […] Degradation of the high-radioconcentration sample in acetate buffer was at least 20 times faster than the degradation of the low-radioconcentration samples of ^177Lu-labeled RM1.
# All mass spectral analyses were performed at the Campus Chemical Instrument Center of the Ohio State University (Columbus, OH, USA) using a Bruker UltrafleXtreme MALDI-TOF MS system. An RP-HPLC method, involving a gradient mobile phase system of 50 mM Tris acetate, 10 mM EDTA at pH 7.2 (solvent A), and acetonitrile (solvent B) with 1 mL/min flow rate, was used to monitor the extent of the reaction of ^177Lu/Lu with AMBA and RM1; for the purity analysis of RM1, AMBA, Lu-RM1, Lu-AMBA, and of the final ^177Lu-labeled samples; and for monitoring the degradation of ^177Lu-labeled RM1 or AMBA samples in acetate buffer, mouse, canine, and human sera. The EDTA was incorporated to detect any unreacted ^177Lu/Lu in the samples. The gradient program used was 0% B at the beginning, raising the percentage of B to 50% in 15 min, holding B at 50% for 4 min, followed by decreasing the percentage of B to 0% in 5 min and continuing 0% for an additional 9 min. The total run time was […].
# All samples of ^177Lu-labeled RM1 were prepared in 0.1 M acetate buffer, pH 5–5.5. The ^177Lu-labeled RM1 samples, with a low radioconcentration, were stored at room temperature and at 2–8 °C storage conditions for 6 d for stability studies. The samples with a high radioconcentration, without and with a stabilizer (gentisic acid or ascorbic acid), were stored 2–8 °C for 2 and 7 d, respectively. For the effect of stabilizer (ascorbic acid or gentisic acid) on the stability of the high-radioconcentration samples of ^177Lu-labeled RM1, the samples were mixed with 500 µg of ascorbic or gentisic acid post radiolabeling. The stability or degradation of the samples was monitored by a reduction in the percent HPLC peak area of ^177Lu-labeled RM1 with time.
# Degradation of ^177Lu-labeled RM1 or AMBA was monitored by a reduction in percent HPLC peak area with time. Half-lives of in vitro acetate buffer and serum degradation for each imaging pharmaceutical were calculated by fitting the percent peak remaining versus time to a first-order kinetics model (Equations (2) and (3)) using Excel or Graph Pad Prism version 5.03 software (Graph Pad Software, Inc., La Jolla, CA, USA). Pt = P0 exp (−k × t);(2) t1/2 = 0.693/k;(3) where Pt is the percent peak area at time t, Po is the percent peak area initially, t is the time elapsed, k is the first-order rate constant, and t1/2 is the half-life of degradation reaction. All degradation kinetics experiments were conducted in triplicate, and average (n = 3) values (standard deviation given in the parenthesis) of half-life are reported.
# [7] = test system: gastrin-releasing peptide (GRP) receptors in a PC-3 cell line; design: method as in PMID 16818949, PMID 16909223; conditions: GRP receptors in PC-3 cell line; cited from earlier work
# Method: The first proof-of-concept GRPR targeting study was conducted using a ^99mTc-labeled BBN (7–14) conjugate (RP527) for breast and prostate cancer imaging. […] Despite the general consensus rel ...
# PC-3 tumor = conditions: mouse, in vivo; cited from earlier work
# Excerpt: Several classes of BBN antagonists have been designed by modifying the C-terminal residues of naturally amidated BBN agonists. […] Additionally, ^68Ga-, ^111In-, and ^18F-AlF-labeled NOTA-PEG2-RM26 (where RM26 = D-Phe-Gln-Trp-Ala-Val-Gly-His-Sta-L ...
# GRPR = test system: GRPR; design: method as in PMID 23763444, PMID 24312607; conditions: cell binding and internalization; cited from earlier work
compound,measurement,setting,value
CC(C)C[C@H](NC(=O)C[C@H](O)[C@H](CC(C)C)NC(=O)[C@H](Cc1c[nH]cn1)NC(=O)CNC(=O)[C@@H](NC(=O)[C@H](C)NC(=O)[C@H](Cc1c[nH]c2ccccc12)NC(=O)[C@H](CCC(N)=O)NC(=O)[C@@H](Cc1ccccc1)NC(=O)c1ccc(NC(=O)CNC(=O)CN2CCN(CC(=O)O)CCN(CC(=O)O)CCN(CC(=O)O)CC2)cc1)C(C)C)C(N)=O [Lu-RM1],relative lipophilicity from retention times,[1],slightly more lipophilic than Lu-AMBA
same,log D,[2],−2.46 (0.07)
"CC(C)C[C@H](NC(=O)C[C@H](O)[C@H](CC(C)C)NC(=O)[C@H](Cc1c[nH]cn1)NC(=O)CNC(=O)[C@@H](NC(=O)[C@H](C)NC(=O)[C@H](Cc1c[nH]c2ccccc12)NC(=O)[C@H](CCC(N)=O)NC(=O)[C@@H](Cc1ccccc1)NC(=O)c1ccc(NC(=O)CNC(=O)CN2CCN(CC(=O)O)CCN(CC(=O)O)CCN(CC(=O)O)CC2)cc1)C(C)C)C(N)=O [^177Lu-labeled RM1, metal not drawn]",degraded in acetate buffer within the same time period as the mouse serum study,[3],10-12%
same,degradation after 1440 min incubation,[4],complete degradation
same,metabolised at 24 h,[5],< 10%
same,half-life of degradation (t1/2),[6]; 500 µg ascorbic acid,39.2 (0.6) h
same,half-life of degradation (t1/2),[6]; 500 µg gentisic acid,142.5 (1.4) h
same,half-life of degradation (t1/2),[6]; no stabilizer,8.5 (0.2) h
same,"degradation of high- versus low-radioconcentration samples, times faster",[6]; acetate buffer,at least 20 times
same,improvement of stability versus no stabilizer,"[6]; high radioconcentration, 500 µg gentisic acid",~17 fold
same,factor by which degradation is reduced versus control without stabilizer,"[6]; high radioconcentration, ascorbic acid",≥ 5
"DO3A-CH2CO-G-[4-aminobenzyl]- Gln-Trp-Ala-Val-Gly-His-Leu-Met-NH2 [AMBA, GRPR agonist, BBN-like peptide chelator conjugate, gift from Bracco Diagnostics]",IC50,[7],4.75 ± 0.25 nM
"NOTA-PEG2-RM26 (where RM26 = D-Phe-Gln-Trp-Ala-Val-Gly-His-Sta-Leu-NH2) [^68Ga-labeled NOTA-PEG2-RM26, 68Ga-labeled NOTA-PEG2 conjugate of the GRPR antagonist peptide RM26]",specific tumor uptake,PC-3 tumor,8.1 ± 0.4 %ID/g
same,IC50,GRPR,0.91 ± 0.19 nM
"NOTA-PEG2-RM26 (where RM26 = D-Phe-Gln-Trp-Ala-Val-Gly-His-Sta-Leu-NH2) [^111In-labeled NOTA-PEG2-RM26, 111In-labeled NOTA-PEG2 conjugate of the GRPR antagonist peptide RM26]",specific tumor uptake,PC-3 tumor,5.7 ± 0.3 %ID/g
same,IC50,GRPR,1.24 ± 0.29 nM
